The source of these data is patent US20150239990A1 (published 2015).

The chains are these.
B1: safe variant 1F2 (partially humanized, fused to human C-lambda and CH1), Fab displayed on phage (Fab, V domains shown)
VH: EVQLLESGGGLVQPGGSLRLSCAASGFTFSTYAMSWVRQAPGKGPEWVSGINTGGGSTGYADSVKGRFTISRDNSKNTLYLQMNSLRPEDTAVYYCAKDWMATTPWGQGTQVTVSS
VL: QTVVTQEPSFSVSPGGTVTLTCGLSSGSVTTNNYPGWFQQTPGQAPRTLIYNTNNRHSGVPSRFSGSILGNKAALTITGAQADDESDYYCALYMSSGSNNAVFGGGTKLTVLG
notes: also called safe 1F2
B2: wt 1F2 (llama VL and VH fused to human C-lambda and CH1), Fab displayed on phage (Fab, V domains shown)
VH: B1 VH with L5V, S75A, R87K
VL: B1 VL with T2A, F10L, L69S, A82P, D83E, S86A, K108H
notes: Tested as a gene3-Fab fusion on phage (crude phage extract)
B3: hum 1F2 (fully humanized VL and VH fused to human C-lambda and CH1), Fab displayed on phage (Fab, V domains shown)
VH: B1 VH with P45L, P88A, Q111L
VL: B1 VL with F38Y, H57S, S62D
notes: Tested as a gene3-Fab fusion on phage
B4: hum 1E2 (fully humanized VL and VH fused to human C-lambda and CH1), Fab displayed on phage (Fab, V domains shown)
VH: EVQLVESGGGLVQPGGSLRLSCAASGFTFSNYWMYWVRQAPGKGLEWVSAINAAGSTYYADSVKGRFTISRDNSKNTLYLQMNSLRAEDTAVYYCANLPRWGQGTLVTVSS
VL: QTVVTQEPSFSVSPGGTVTLTCGLSSGSVTSGNYPGWYQQTPGQAPRTLIYNTNSRSSGVPDRFSGSILGNKAALTITGAQADDESDYYCAVYIGSSSYPVVFGGGTKLTVLG
notes: as for B3
B5: wt 1E2 (llama VL and VH fused to human C-lambda and CH1), Fab displayed on phage (Fab, V domains shown)
VH: B4 VH with A23T, S74A, R86Q, A87S, V92L, L106Q
VL: B4 VL with F10L, T41K, S57Y, D62N, L69S, A82P, D83E, S86A, K108H
notes: as for B3
B6: safe variant 1E2 (partially humanized, fused to human C-lambda and CH1), Fab displayed on phage (Fab, V domains shown)
VH: B4 VH with R86Q, A87S, L106Q
VL: B4 VL with T41K, A82P, K108H
notes: also called safe 1E2
B7: Fab 1F2 (llama Fab selected against IL-1Beta) (Fab, V domains shown)
VH: B1 VH with L5V, S75A, R87K
VL: B1 VL with T2A, F10L, L69S, A82P, D83E, S86A, K108H
notes: Original clone from the llama Fab phage library
B8: wild type llama 1E2 Fab (Fab, V domains shown)
VH: B4 VH with A23T, S74A, R86Q, A87S, V92L, L106Q
VL: B4 VL with F10L, T41K, S57Y, D62N, L69S, A82P, D83E, S86A, K108H
notes: Produced from phagemid pCB3; Hexahistidine and myc tags at the C-terminus of the Fd; Captured by anti-myc; also called Fab 1E2
B9: chimeric 1E2 Fab (llama VL and VH of 1E2 fused to human C-lambda and CH1) (Fab, V domains shown)
VH: B4 VH with A23T, S74A, R86Q, A87S, V92L, L106Q
VL: B4 VL with F10L, T41K, S57Y, D62N, L69S, A82P, D83E, S86A, K108H
notes: Purified from E. coli (pCB5, no gene3); Myc and hexahistidine tags on the Fd; also called wt 1E2
B10: Fab 1E2 wt VL / hum VH (with human CL and human CH1) (Fab, V domains shown)
VH: B4 VH
VL: B4 VL with F10L, T41K, S57Y, D62N, L69S, A82P, D83E, S86A, K108H
notes: Purified from E. coli; also called wt/hum; wt VA/hum VH
B11: Fab 1E2 wt VL / safe VH (with human CL and human CH1) (Fab, V domains shown)
VH: B4 VH with R86Q, A87S, L106Q
VL: B4 VL with F10L, T41K, S57Y, D62N, L69S, A82P, D83E, S86A, K108H
notes: Purified from E. coli; also called wt/safe; wt VA/safe VH

Positions count from the first letter of the chain named.

The target of one experiment is T1, neutravidin (UniProt P02701 25-152).
T1 construct: Capture reagent of the phage ELISA; Wells without biotinylated IL-1Beta served as the negative control
T1 sequence (P02701 25-152): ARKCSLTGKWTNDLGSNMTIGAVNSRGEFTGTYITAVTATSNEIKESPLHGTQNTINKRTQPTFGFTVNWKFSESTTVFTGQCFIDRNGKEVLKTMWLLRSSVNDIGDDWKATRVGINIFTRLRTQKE
Put plainly: phage ELISA on neutravidin coated wells, anti-M13-HRP detection. How it is done: (§1) Four clones for each Fab were tested to overcome clonal variation (due to bacterial growth, phage production efficiency and toxicity etc. . . . ). Phage ELISA was performed by capturing of biotinylated IL-1Beta on neutravidin coated Maxisorp plate and subsequent incubation of crude phage extract (i.e. bacterial medium). After extensive washing, bound phages were detected with an anti-M13-HRP monoclonal antibody.
A general note: In an ELISA, binding on a coated surface is turned into a signal by an enzyme label.
For B1, the binding result is listed as “no binding”. On the same count and under the same terms, the same measure for B2: “no binding”; for B3: “no binding”. Still for that read-out and setting: the same measure for B4: “no binding”.

In the case of B5, the binding result is reported as “no binding”.

Regarding B6, the binding result is listed as “no binding”.

The target of a further experiment is T2, biotinylated human IL-1Beta (human, UniProt P01584 117-269, biotinylated (positions not stated)).
T2 construct: In the assays it was biotinylated; also called biot-IL-1Beta
Nature of the experiment: phage display selection and phage ELISA on biotinylated IL-1Beta.
For B7, the binding result is “binds”.

For the molecule B8, the binding result is on record as “binds”.

In another experiment the target is T2, biotinylated human IL-1Beta. Put plainly: ELISA: Fab captured on anti-myc plate, biotinylated human IL-1Beta, streptavidin-HRP. How it is done: For this the Fabs were captured on an anti-myc coated Maxisorp plate. Biotinylated human IL-1Beta was added and bound cytokine was detected using HRP-conjugated streptavidin.
The purified llama and chimeric 1E2 Fabs described above were captured on anti-myc coated maxisorp plates. After incubation with biotinylated human IL-1Beta and extensive washing, the biotinylated IL-1Beta bound to the Fab was detected using HRP-conjugated streptavidin.
As for B9, the binding result is listed as “binds”. On the same count and under the same terms, then B10, with “binds”. For B11, the binding result is recorded as “binds”.

For another experiment the target is unchanged. Put plainly: phage ELISA: biotinylated IL-1Beta captured on neutravidin, crude phage, anti-M13-HRP. How it is done: as §1
For the molecule B3, the binding result is given as “binds”.
